Key:
Assay in all cases: holdup assay
Design in all cases: key: below the threshold = too weak to quantify, mostly under pKd 3.1 to 4
MPP2, Q14168 = target: T1, MPP2, Q14168
T1 sequence (Q14168 180-250, limits assumed, looked up): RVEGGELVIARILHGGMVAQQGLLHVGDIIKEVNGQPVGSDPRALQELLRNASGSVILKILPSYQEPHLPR

GRIP2_5, Q9C0E4 = target: GRIP2_5, Q9C0E4
LNX1_2, Q8TBB1 = target: LNX1_2, Q8TBB1
RADIL, Q96JH8 = target: T2, RADIL, Q96JH8
T2 sequence (Q96JH8 971-1071, limits assumed, looked up): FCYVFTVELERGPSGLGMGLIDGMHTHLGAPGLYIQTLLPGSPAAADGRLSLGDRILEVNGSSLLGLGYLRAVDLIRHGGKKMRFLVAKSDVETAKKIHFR

SCRIB_3, Q14160 = target: SCRIB_3, Q14160
Chain of SCRIB_3, Q14160 (Q14160 999-1103): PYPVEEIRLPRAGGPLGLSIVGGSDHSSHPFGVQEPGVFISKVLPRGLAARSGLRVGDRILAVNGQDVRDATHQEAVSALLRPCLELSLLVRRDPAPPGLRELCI

DLG3_2, Q92796 = target: T3, DLG3_2, Q92796
T3 sequence (Q92796 221-321, limits assumed, looked up): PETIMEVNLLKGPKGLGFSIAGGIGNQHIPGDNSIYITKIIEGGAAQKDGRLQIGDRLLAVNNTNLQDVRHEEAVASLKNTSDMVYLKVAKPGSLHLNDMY

DLG4_1, P78352 = target: DLG4_1, P78352
Chain of DLG4_1, P78352 (P78352 62-152): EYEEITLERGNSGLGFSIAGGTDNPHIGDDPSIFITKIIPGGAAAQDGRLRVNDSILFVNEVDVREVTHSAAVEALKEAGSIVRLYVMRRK

LRRC7, Q96NW7 = target: T4, LRRC7, Q96NW7
T4 sequence (Q96NW7 1440-1537, limits assumed, looked up): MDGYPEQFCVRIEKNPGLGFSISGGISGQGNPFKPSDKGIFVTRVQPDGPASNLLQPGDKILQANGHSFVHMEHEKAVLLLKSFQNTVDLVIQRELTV

NOS1, P29475 = target: NOS1, P29475
Chain of NOS1, P29475 (P29475 9-101): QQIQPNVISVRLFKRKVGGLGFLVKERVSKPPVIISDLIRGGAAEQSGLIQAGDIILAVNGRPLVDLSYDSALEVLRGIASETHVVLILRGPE

FRMPD3, Q5JV73 = target: FRMPD3, Q5JV73
Chain of FRMPD3, Q5JV73 (Q5JV73 12-100): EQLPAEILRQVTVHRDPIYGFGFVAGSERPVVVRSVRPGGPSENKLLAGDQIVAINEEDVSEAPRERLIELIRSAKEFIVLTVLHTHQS

GRIP1_5, Q9Y3R0 = target: T5, GRIP1_5, Q9Y3R0
T5 sequence (Q9Y3R0 568-668, limits assumed, looked up): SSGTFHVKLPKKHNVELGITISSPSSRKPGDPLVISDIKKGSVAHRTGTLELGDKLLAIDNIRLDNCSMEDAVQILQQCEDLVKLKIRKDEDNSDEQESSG

NHERF3_4, Q5T2W1 = target: T6, NHERF3_4, Q5T2W1
T6 sequence (Q5T2W1 373-468, limits assumed, looked up): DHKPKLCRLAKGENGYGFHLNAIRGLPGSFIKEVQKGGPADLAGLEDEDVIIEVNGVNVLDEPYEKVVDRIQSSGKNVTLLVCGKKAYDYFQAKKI

APBA2_1, Q99767 = target: T7, APBA2_1, Q99767
T7 sequence (Q99767 563-664, limits assumed, looked up): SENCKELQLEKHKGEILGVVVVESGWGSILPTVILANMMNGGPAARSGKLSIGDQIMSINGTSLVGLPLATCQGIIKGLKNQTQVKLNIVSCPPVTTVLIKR

PDLIM1, O00151 = target: PDLIM1, O00151
Chain of PDLIM1, O00151 (O00151 1-87): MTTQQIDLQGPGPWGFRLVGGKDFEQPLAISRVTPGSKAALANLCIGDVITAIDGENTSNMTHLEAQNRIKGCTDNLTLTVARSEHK

TJP1_2, Q07157 = target: TJP1_2, Q07157
Chain of TJP1_2, Q07157 (Q07157 181-274): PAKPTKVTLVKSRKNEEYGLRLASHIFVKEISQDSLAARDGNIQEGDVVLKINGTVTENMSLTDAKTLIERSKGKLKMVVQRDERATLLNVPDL

MAST2, Q6P0Q8 = target: MAST2, Q6P0Q8
Chain of MAST2, Q6P0Q8 (Q6P0Q8 1099-1202): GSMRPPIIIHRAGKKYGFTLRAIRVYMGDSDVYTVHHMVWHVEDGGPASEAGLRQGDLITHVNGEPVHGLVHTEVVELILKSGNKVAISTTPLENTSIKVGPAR

APBA1_2, Q02410 = target: T8, APBA1_2, Q02410
T8 sequence (Q02410 742-832, limits assumed, looked up): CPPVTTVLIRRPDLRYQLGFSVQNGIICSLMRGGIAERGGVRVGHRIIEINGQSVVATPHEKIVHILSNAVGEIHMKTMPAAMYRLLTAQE

MAGI2_4, Q86UL8 = target: MAGI2_4, Q86UL8
Chain of MAGI2_4, Q86UL8 (Q86UL8 772-865): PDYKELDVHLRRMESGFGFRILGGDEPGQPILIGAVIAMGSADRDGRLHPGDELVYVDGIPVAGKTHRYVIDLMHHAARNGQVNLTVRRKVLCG

MAGI2_5, Q86UL8 = target: MAGI2_5, Q86UL8
Chain of MAGI2_5, Q86UL8 (Q86UL8 915-1017): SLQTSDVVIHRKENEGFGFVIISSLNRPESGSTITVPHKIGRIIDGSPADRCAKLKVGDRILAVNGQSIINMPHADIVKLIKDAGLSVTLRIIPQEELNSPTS

Inadl_6, Q8NI35 = target: Inadl_6, Q8NI35
Chain of Inadl_6, Q8NI35 (Q8NI35 1058-1167): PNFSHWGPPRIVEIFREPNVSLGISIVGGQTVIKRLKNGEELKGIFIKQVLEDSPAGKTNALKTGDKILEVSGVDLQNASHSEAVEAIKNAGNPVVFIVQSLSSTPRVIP

APBA2_2, Q99767 = target: T9, APBA2_2, Q99767
T9 sequence (Q99767 654-744, limits assumed, looked up): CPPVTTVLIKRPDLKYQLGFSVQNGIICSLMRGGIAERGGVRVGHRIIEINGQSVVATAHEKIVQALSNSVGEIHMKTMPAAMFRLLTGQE

SIPA1L2, Q9P2F8 = target: T10, SIPA1L2, Q9P2F8
T10 sequence (Q9P2F8 945-1036, limits assumed, looked up): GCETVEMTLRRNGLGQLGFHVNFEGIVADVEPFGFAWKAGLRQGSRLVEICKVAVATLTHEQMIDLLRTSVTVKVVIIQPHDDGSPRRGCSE

LNX2_2, Q8N448 = target: T11, LNX2_2, Q8N448
T11 sequence (Q8N448 334-432, limits assumed, looked up): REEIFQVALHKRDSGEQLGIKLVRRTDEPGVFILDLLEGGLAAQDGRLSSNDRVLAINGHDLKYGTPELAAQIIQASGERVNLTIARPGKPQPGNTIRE

TIAM2, Q8IVF5 = target: T12, TIAM2, Q8IVF5
T12 sequence (Q8IVF5 885-986, limits assumed, looked up): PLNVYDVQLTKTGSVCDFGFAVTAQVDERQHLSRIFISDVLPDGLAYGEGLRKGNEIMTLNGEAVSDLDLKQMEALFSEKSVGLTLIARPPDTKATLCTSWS

FRMPD1, Q5SYB0 = target: T13, FRMPD1, Q5SYB0
T13 sequence (Q5SYB0 52-145, limits assumed, looked up): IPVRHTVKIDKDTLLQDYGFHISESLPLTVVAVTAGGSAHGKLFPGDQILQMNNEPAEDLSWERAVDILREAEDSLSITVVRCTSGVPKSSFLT

[1] = plain residues with an end cap or a label only (N-terminal biotin on a linker: ado-ado)
[2] = plain residues with an end cap or a label only (N-terminal biotin on a linker: (peg)3)

Chain of LNX1_2, Q8TBB1 (Q8TBB1 371-470): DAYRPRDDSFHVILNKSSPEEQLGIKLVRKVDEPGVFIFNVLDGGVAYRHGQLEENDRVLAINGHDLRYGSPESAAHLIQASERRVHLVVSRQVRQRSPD
Chain of GRIP2_5, Q9C0E4 (Q9C0E4 544-642): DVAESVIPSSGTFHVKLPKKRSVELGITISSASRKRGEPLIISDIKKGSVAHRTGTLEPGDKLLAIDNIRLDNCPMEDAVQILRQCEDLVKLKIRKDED

## NISYRRESAI [KCNJ4, P48050]
MPP2, Q14168; [1]
  pKd: below the threshold
GRIP2_5, Q9C0E4; [1]
  pKd: below the threshold
LNX1_2, Q8TBB1; [1]
  pKd: below the threshold
RADIL, Q96JH8; [1]
  pKd: below the threshold
SCRIB_3, Q14160; [1]
  pKd: 4.91
DLG3_2, Q92796; [1]
  pKd: 4.35
DLG4_1, P78352; [1]
  pKd: below the threshold
LRRC7, Q96NW7; [1]
  pKd: below the threshold
NOS1, P29475; [1]
  pKd: 3.62
FRMPD3, Q5JV73; [1]
  pKd: below the threshold
GRIP1_5, Q9Y3R0; [1]
  pKd: below the threshold
NHERF3_4, Q5T2W1; [1]
  pKd: below the threshold
APBA2_1, Q99767; [1]
  pKd: below the threshold
PDLIM1, O00151; [1]
  pKd: below the threshold
TJP1_2, Q07157; [1]
  pKd: below the threshold
MAST2, Q6P0Q8; [1]
  pKd: 4.72
APBA1_2, Q02410; [1]
  pKd: below the threshold
MAGI2_4, Q86UL8; [1]
  pKd: below the threshold
MAGI2_5, Q86UL8; [1]
  pKd: below the threshold
Inadl_6, Q8NI35; [1]
  pKd: below the threshold
APBA2_2, Q99767; [1]
  pKd: below the threshold
SIPA1L2, Q9P2F8; [1]
  pKd: below the threshold
LNX2_2, Q8N448; [1]
  pKd: below the threshold
TIAM2, Q8IVF5; [1]
  pKd: 4.07
FRMPD1, Q5SYB0; [1]
  pKd: below the threshold

## DPAESMESLV [PTPRG, P23470]
MPP2, Q14168; [1]
  pKd: below the threshold
GRIP2_5, Q9C0E4; [1]
  pKd: below the threshold
LNX1_2, Q8TBB1; [1]
  pKd: below the threshold
RADIL, Q96JH8; [1]
  pKd: 4.23
SCRIB_3, Q14160; [1]
  pKd: 3.92
DLG3_2, Q92796; [1]
  pKd: 4.72
DLG4_1, P78352; [1]
  pKd: 4.59
LRRC7, Q96NW7; [1]
  pKd: below the threshold
NOS1, P29475; [1]
  pKd: 3.74
FRMPD3, Q5JV73; [1]
  pKd: below the threshold
GRIP1_5, Q9Y3R0; [1]
  pKd: below the threshold
NHERF3_4, Q5T2W1; [1]
  pKd: below the threshold
APBA2_1, Q99767; [1]
  pKd: below the threshold
PDLIM1, O00151; [1]
  pKd: below the threshold
TJP1_2, Q07157; [1]
  pKd: below the threshold
MAST2, Q6P0Q8; [1]
  pKd: 4.69
APBA1_2, Q02410; [1]
  pKd: below the threshold
MAGI2_4, Q86UL8; [1]
  pKd: 4.25
MAGI2_5, Q86UL8; [1]
  pKd: 5.32
Inadl_6, Q8NI35; [1]
  pKd: 3.88
APBA2_2, Q99767; [1]
  pKd: below the threshold
SIPA1L2, Q9P2F8; [1]
  pKd: below the threshold
LNX2_2, Q8N448; [1]
  pKd: 4.3
TIAM2, Q8IVF5; [1]
  pKd: below the threshold
FRMPD1, Q5SYB0; [1]
  pKd: below the threshold

## RYEDTTLVEDTVL [WNV-NS5, Q9Q6P4]
MPP2, Q14168; [2]
  pKd: below the threshold
GRIP2_5, Q9C0E4; [2]
  pKd: below the threshold
LNX1_2, Q8TBB1; [2]
  pKd: below the threshold
RADIL, Q96JH8; [2]
  pKd: below the threshold
SCRIB_3, Q14160; [2]
  pKd: 3.97
DLG3_2, Q92796; [2]
  pKd: 3.76
DLG4_1, P78352; [2]
  pKd: below the threshold
LRRC7, Q96NW7; [2]
  pKd: 3.49
NOS1, P29475; [2]
  pKd: 3.64
FRMPD3, Q5JV73; [2]
  pKd: 3.88
GRIP1_5, Q9Y3R0; [2]
  pKd: below the threshold
NHERF3_4, Q5T2W1; [2]
  pKd: 3.96
APBA2_1, Q99767; [2]
  pKd: below the threshold
PDLIM1, O00151; [2]
  pKd: below the threshold
TJP1_2, Q07157; [2]
  pKd: 3.55
MAST2, Q6P0Q8; [2]
  pKd: 5.64
APBA1_2, Q02410; [2]
  pKd: below the threshold
MAGI2_4, Q86UL8; [2]
  pKd: below the threshold
MAGI2_5, Q86UL8; [2]
  pKd: below the threshold
Inadl_6, Q8NI35; [2]
  pKd: below the threshold
APBA2_2, Q99767; [2]
  pKd: below the threshold
SIPA1L2, Q9P2F8; [2]
  pKd: below the threshold
LNX2_2, Q8N448; [2]
  pKd: below the threshold
TIAM2, Q8IVF5; [2]
  pKd: below the threshold
FRMPD1, Q5SYB0; [2]
  pKd: below the threshold
